We go through 2 proteins from publication PMC13598245, “A complex of MAST1 and 14-3-3η regulates Tau phosphorylation in the developing cortex” (Proceedings of the National Academy of Sciences of the …, 2026).

This data set deals with the molecule itself. In words: cross-linking + other: mass photometry; complex stabilised by glutaraldehyde cross-linking, then mass photometry (25 to 50 nM, 50 mM HEPES pH 7.4, 150 mM NaCl, 1 mM TCEP).

B1: GST-tagged 14-3-3η (coexpressed with MAST1^DK) (natural protein, UniProt Q04917 1-246, looked up)
chain: MGDREQLLQRARLAEQAERYDDMASAMKAVTELNEPLSNEDRNLLSVAYKNVVGARRSSWRVISSIEQKTMADGNEKKLEKVKAYREKIEKELETVCNDVLSLLDKFLIKNCNDFQYESKVFYLKMKGDYYRYLAEVASGEKKNSVVEASEAAYKEAFEISKEQMQPTHPIRLGLALNFSVFYYEIQNAPEQACLLAKQAFDDAIAELDTLNEDSYKDSTLIMQLLRDNLTLWTSDQQDEEAGEGN
notes: 14-3-3 protein eta
The term stoichiometry N denotes the number of molecules, sites or subunits per partner or assembly. As to B1, the “stoichiometry N” value came to 2.

B2: 14-3-3η (purified, recombinant) (natural protein, UniProt Q04917 1-246, looked up)
chain: MGDREQLLQRARLAEQAERYDDMASAMKAVTELNEPLSNEDRNLLSVAYKNVVGARRSSWRVISSIEQKTMADGNEKKLEKVKAYREKIEKELETVCNDVLSLLDKFLIKNCNDFQYESKVFYLKMKGDYYRYLAEVASGEKKNSVVEASEAAYKEAFEISKEQMQPTHPIRLGLALNFSVFYYEIQNAPEQACLLAKQAFDDAIAELDTLNEDSYKDSTLIMQLLRDNLTLWTSDQQDEEAGEGN
notes: 14-3-3 protein eta; also called purified 14-3-3η; source: purified recombinant
Turning to B2, the “stoichiometry N” value is 2.
